Assay results reported in patent US20260242478A1 (published 2026).

What was measured:
PSMA Fab (006 PSMA Fab) [1] = target: T1, PSMA Fab (006 PSMA Fab); experiment: clonal phage supernatant on biotinylated PSMA Fab captured on neutravidin plate, anti-M13-HRP detection;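 note: before phage were added, wells received PSMA antigen in blocking buffer or blocking buffer alone, with no wash in between, followed by a short phage incubation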
T1 construct: also called Anti-PSMA Fab
Description: (§1) Clonal phage were harvested as crude supernatants and screened via standard ELISAs. […] Prior to the addition of clonal phage. wells were incubated with blocking buffer and PSMA antigen or blocking buffer alone. Without washing or aspirating, clonal phage supernatants were then added to the wells and incubated for a short time. Wells were then washed followed by detection of bound phage using a horse radish conjugated anti-M13 antibody.

PSMA Fab (006 PSMA Fab) [2] = target: T1, PSMA Fab (006 PSMA Fab); experiment: phage ELISA on captured PSMA Fab pre-incubated with the competitor PSMA antigen, anti-M13-HRP detection
Description: as §1

PSMA Fab (006 PSMA Fab) [3] = target: T2, PSMA Fab (006 PSMA Fab); experiment: phage binding ELISA; biotinylated PSMA Fab on neutravidin plate, clonal phage supernatant, anti-M13 HRP detection;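 note: wells were preincubated with blocking buffer either containing PSMA antigen or without it before crude phage supernatant was added, briefly incubated, then washed prior to detection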
T2 construct: also called Anti-PSMA Fab; anti-PSMA Fab
Description: as §1

006 PSMA Fab [4] = target: T3, 006 PSMA Fab (biotinylated (site not stated)); experiment: clonal phage ELISA; biotinylated PSMA Fab on neutravidin plate pre-incubated with PSMA antigen as competitor, anti-M13-HRP detection
T3 construct: also called Anti-PSMA Fab

006 PSMA Fab [5] = target: T3, 006 PSMA Fab; experiment: clonal phage ELISA; biotinylated PSMA Fab on neutravidin plate, blocking buffer alone, anti-M13-HRP detection;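 note: crude clonal phage supernatants added without washing to wells preincubated with PSMA antigen or with blocking buffer alone, briefly incubated, then washed before bound phage detection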
Description: as §1

006 PSMA Fab [6] = target: T4, 006 PSMA Fab; experiment: clonal phage ELISA; biotinylated PSMA Fab captured on neutravidin plate, blocking buffer alone; bound phage detected with anti-M13 HRP
T4 construct: In the phage ELISA the PSMA Fab was biotinylated and captured on neutravidin coated plates; also called Anti-PSMA Fab
Description: as §1

006 PSMA Fab [7] = target: T4, 006 PSMA Fab; experiment: clonal phage ELISA; biotinylated PSMA Fab captured on neutravidin plate, wells pre-incubated with PSMA antigen as competitor; bound phage detected with anti-M13 HRP
Description: as §1

Binder: MSPMCSPSWMCMGF [Phage-3919]
- Phage binding ELISA signal, Anti-PSMA Fab (PSMA Fab (006 PSMA Fab) [1]): 0.993
- phage binding ELISA signal, Anti-PSMA Fab in the presence of PSMA (PSMA Fab (006 PSMA Fab) [2]): 0.0911

B1: Phage-3930 (Peptide-180 library clone) (peptide)
peptide: QLLRCVPPWMCEGF
notes: Tested as clonal phage supernatant; not shown: fused to the pIII filament protein of the bacteriophage
- Phage binding ELISA signal, Anti-PSMA Fab (PSMA Fab (006 PSMA Fab) [3]): 0.97

B2: Phage-3889 (peptide)
peptide: IDTLCVPWWMCSGF
notes: tested as crude clonal phage supernatant
- Phage binding ELISA signal, Anti-PSMA Fab in the presence of PSMA antigen (006 PSMA Fab [4]): 0.0774
- Phage binding ELISA signal, Anti-PSMA Fab (006 PSMA Fab [5]): 1.1

Binder: YNQYCTPLWMCEGF [Phage-3924]
- Phage binding ELISA signal, Anti-PSMA Fab (PSMA Fab (006 PSMA Fab) [1]): 0.977
- phage binding ELISA signal, Anti-PSMA Fab in the presence of PSMA (PSMA Fab (006 PSMA Fab) [2]): 0.0796

Binder: DQVMCIPRWMCEGF [Phage-3943]
- Phage binding ELISA signal, Anti-PSMA Fab (006 PSMA Fab [6]): 0.904
- Phage binding ELISA signal, Anti-PSMA Fab with PSMA antigen (006 PSMA Fab [7]): 0.0676

B3: Phage-3895 (peptide)
peptide: EWIMCTPPWMCHGF
notes: as for B2
- Phage binding ELISA signal, Anti-PSMA Fab in the presence of PSMA antigen (006 PSMA Fab [4]): 0.0638
- Phage binding ELISA signal, Anti-PSMA Fab (006 PSMA Fab [5]): 1.09

Binder: STTLCRPAWMCTGM [Phage-3916]
- Phage binding ELISA signal, Anti-PSMA Fab (PSMA Fab (006 PSMA Fab) [1]): 1.02
- phage binding ELISA signal, Anti-PSMA Fab in the presence of PSMA (PSMA Fab (006 PSMA Fab) [2]): 0.0655

B4: Phage-3927 (Peptide-180 library clone) (peptide)
peptide: SMQKCVPSWMCAGF
notes: as for B1
- Phage binding ELISA signal, Anti-PSMA Fab (PSMA Fab (006 PSMA Fab) [3]): 0.972

B5: Phage-3933 (Peptide-180 library clone) (peptide)
peptide: YTQACTPSWMCHGF
notes: as for B1
- Phage binding ELISA signal, Anti-PSMA Fab (PSMA Fab (006 PSMA Fab) [3]): 0.96

Binder: DSLVCQPRWMCVGF [Phage-3945]
- Phage binding ELISA signal, Anti-PSMA Fab (006 PSMA Fab [6]): 0.895
- Phage binding ELISA signal, Anti-PSMA Fab with PSMA antigen (006 PSMA Fab [7]): 0.063

Binder: GQIMCIPTWMCSGF [Phage-3921]
- Phage binding ELISA signal, Anti-PSMA Fab (PSMA Fab (006 PSMA Fab) [1]): 0.98
- phage binding ELISA signal, Anti-PSMA Fab in the presence of PSMA (PSMA Fab (006 PSMA Fab) [2]): 0.0809

B6: Phage-3936 (Peptide-180 library clone) (peptide)
peptide: WVRLCQPAWMCTGL
notes: as for B1
- Phage binding ELISA signal, Anti-PSMA Fab (PSMA Fab (006 PSMA Fab) [3]): 0.926

B7: Phage-3934 (Peptide-180 library clone) (peptide)
peptide: DIVECRPRWMCDGF
notes: as for B1
- Phage binding ELISA signal, Anti-PSMA Fab (PSMA Fab (006 PSMA Fab) [3]): 0.936

B8: Phage-3928 (Peptide-180 library clone) (peptide)
peptide: WDLLCSPPWMCAGM
notes: as for B1
- Phage binding ELISA signal, Anti-PSMA Fab (PSMA Fab (006 PSMA Fab) [3]): 0.971

Binder: PLTSCVPQWMCYGF [Phage-3940]
- Phage binding ELISA signal, Anti-PSMA Fab (006 PSMA Fab [6]): 0.913
- Phage binding ELISA signal, Anti-PSMA Fab with PSMA antigen (006 PSMA Fab [7]): 0.0873

B9: Phage-3937 (Peptide-180 library clone) (peptide)
peptide: LTPVCRPAWMCLEL
notes: as for B1
- Phage binding ELISA signal, Anti-PSMA Fab (PSMA Fab (006 PSMA Fab) [3]): 0.922

Binder: GDIQCRPLWMCDGL [Phage-3942]
- Phage binding ELISA signal, Anti-PSMA Fab (006 PSMA Fab [6]): 0.907
- Phage binding ELISA signal, Anti-PSMA Fab with PSMA antigen (006 PSMA Fab [7]): 0.128

B10: Phage-3894 (peptide)
peptide: DLQMCLPKWMCVGF
notes: as for B2
- Phage binding ELISA signal, Anti-PSMA Fab in the presence of PSMA antigen (006 PSMA Fab [4]): 0.0639
- Phage binding ELISA signal, Anti-PSMA Fab (006 PSMA Fab [5]): 1.09

B11: Phage-3932 (Peptide-180 library clone) (peptide)
peptide: LNVECVPQWMCDGF
notes: as for B1
- Phage binding ELISA signal, Anti-PSMA Fab (PSMA Fab (006 PSMA Fab) [3]): 0.965

B12: Phage-3929 (Peptide-180 library clone) (peptide)
peptide: TWSICEPRWMCEGF
notes: as for B1
- Phage binding ELISA signal, Anti-PSMA Fab (PSMA Fab (006 PSMA Fab) [3]): 0.97

B13: Phage-3925 (Peptide-180 library clone) (peptide)
peptide: NERFCEPAWMCHGF
notes: as for B1
- Phage binding ELISA signal, Anti-PSMA Fab (PSMA Fab (006 PSMA Fab) [3]): 0.977

B14: Phage-3891 (peptide)
peptide: VVYTCVPSWMCTGL
notes: as for B2
- Phage binding ELISA signal, Anti-PSMA Fab in the presence of PSMA antigen (006 PSMA Fab [4]): 0.062
- Phage binding ELISA signal, Anti-PSMA Fab (006 PSMA Fab [5]): 1.1

B15: Phage-3888 (peptide)
peptide: LQIRCQPVWMCHGF
notes: as for B2
- Phage binding ELISA signal, Anti-PSMA Fab in the presence of PSMA antigen (006 PSMA Fab [4]): 0.0801
- Phage binding ELISA signal, Anti-PSMA Fab (006 PSMA Fab [5]): 1.1

B16: Phage-3890 (peptide)
peptide: DQHACRPEWMCVGF
notes: as for B2
- Phage binding ELISA signal, Anti-PSMA Fab in the presence of PSMA antigen (006 PSMA Fab [4]): 0.0789
- Phage binding ELISA signal, Anti-PSMA Fab (006 PSMA Fab [5]): 1.1
